Measurements taken from paper PMC9982069 (PNAS Nexus, 2023).

B1: batCOV5-MCTD-sfGFP, carboxy-terminal domain of batCOV5-M between the two halves of a split superfold (domain or fragment)
chain: ESNCLLNVPIGGTTVVRPLVEDSTSVTAVVTDGYLKMAGMHFGACDFQRLPSEVTVAKPNVLIALKMIKRQAYGTNSGVAIYHRYKAGN
B2: batCOV5-M, M protein of Pipistrellus bat coronavirus HKU5, affinity- and SEC-purified (cross-linking, MST) (natural protein)
chain: MASSNVTLSNDEVLRLVKDWNFTWSVVFLLITIVLQYGYPSRSMFVYVIKMFVLWLLWPASMALSIFCAVYPIDLASQIISGILAATSCAMWISYFVQSIRLFMRTGSWWSFNPESNCLLNVPIGGTTVVRPLVEDSTSVTAVVTDGYLKMAGMHFGACDFQRLPSEVTVAKPNVLIALKMIKRQAYGTNSGVAIYHRYKAGNYRRPPIIQDQELALLRA

How the values were obtained:
[1] = target: the molecule itself; assay: crystal structure
[2] = target: the molecule itself; assay: cross-linking

Row | Protein | stoichiometry N [1] | stoichiometry N [2]
1 | B1 | 4 | –
2 | B2 | – | ≥ 2
